Literature values as cited in article PMC12930849.
Where “and” joins values, the source holds several entries; their conditions need not be identical. Equal entries are not always repeated.

Legend:
Experiment in all cases: NMR
Glu7 = Glu7 (UniProt position 25, VFGRCELAAAM)
Cterm = Cterm (UniProt position 147, IRGCRL-----)
Asp52 = Asp52 (UniProt position 70, TDGSTDYGILQ)
Glu35 = Glu35 (UniProt position 53, CAAKFESNFNT)
Asp101 = Asp101 (UniProt position 119, KKIVSDGNGMN)
Asp87 = Asp87 (UniProt position 105, ALLSSDITASV)
His15 = His15 (UniProt position 33, AAMKRHGLDNY)
Asp119 = Asp119 (UniProt position 137, RCKGTDVQAWI)
Asp18 = Asp18 (UniProt position 36, KRHGLDNYRGY)

Substance: Hen egg-white lysozyme (lysozyme C) (Gallus gallus)
- pKa (Glu7): 2.85 ± 0.25 and 2.6 ± 0.2
- pKa (Cterm): 2.75 ± 0.02 and 2.7 ± 0.2
- pKa (Asp52): 3.68 ± 0.08 and 3.6 ± 0.3
- pKa (Glu35): 6.20 ± 0.10 and 6.1 ± 0.4
- pKa (Asp101): 4.09 ± 0.07 and 4.5 ± 0.1
- pKa (Asp87): 2.07 ± 0.15 and 2.2 ± 0.1
- pKa (His15): 5.36 ± 0.07 and 5.5 ± 0.2
- pKa (Asp119): 3.20 ± 0.09 and 3.5 ± 0.3
- pKa (Asp18): 2.66 ± 0.08 and 2.8 ± 0.3
